# Data taken from US20260055369A1, “METHOD FOR GENERATING CELLS OF THE T CELL LINEAGE WITH ENGINEERING BROADLY REACTIVE HUMAN NOTCH LIGAND” (H. Lee Moffitt Cancer Center and Research Institute, Inc., priority 2022, published 2026).
# B1: Delta^MAX: engineered human DLL4 consensus variant with 10 mutations combining DLL4.v1 and DLL4.v2 mutations; sequence matches SEQ ID NO: 4/10 (protein)
# chain: SSVFQLQLQEFINERGVLASGRPCEPGCRTFFRVCLKHFQAVVSPGPCTFGTVSTPVLGTNSFAVRDDSSGGGRNPLQLPLNFTWPGTFSLIIEAWHAPGDDLRPEALPPDALISKFAIQGSLAVGQNWLLDEQTSTLTRLRYSYRVICSDNYYGDNCSRLCKKRNDYFGHYVCQPDGNPSCLPGWTGEYCQQPICLSGCHEQNGYCSKPAECLCRPGWQGRLCNECIPHPGCRHGTCSTPWQCLCDEGWGGLYCDQDLNYCTHHSPCKNGATCRNSGPRSYTCTCRPGYTGVDCELELSECDSNPCRNGGSCKDQEDGYHCLCPPGYYGLHCEHSTLSCADSPCFNGGSCRERNQGANYACECPPNFTGSNCE
# How the values were obtained:
# [1] = test system: full-length, cell surface-expressed Notch1; experiment: Tetramer binding to Notch1 overexpressing CHO-K1 N1-Gal4 cells by flow cytometry; details: tetramers
# full-length, cell surface-expressed Notch1, sequence (P46531 19-1664 limits assumed): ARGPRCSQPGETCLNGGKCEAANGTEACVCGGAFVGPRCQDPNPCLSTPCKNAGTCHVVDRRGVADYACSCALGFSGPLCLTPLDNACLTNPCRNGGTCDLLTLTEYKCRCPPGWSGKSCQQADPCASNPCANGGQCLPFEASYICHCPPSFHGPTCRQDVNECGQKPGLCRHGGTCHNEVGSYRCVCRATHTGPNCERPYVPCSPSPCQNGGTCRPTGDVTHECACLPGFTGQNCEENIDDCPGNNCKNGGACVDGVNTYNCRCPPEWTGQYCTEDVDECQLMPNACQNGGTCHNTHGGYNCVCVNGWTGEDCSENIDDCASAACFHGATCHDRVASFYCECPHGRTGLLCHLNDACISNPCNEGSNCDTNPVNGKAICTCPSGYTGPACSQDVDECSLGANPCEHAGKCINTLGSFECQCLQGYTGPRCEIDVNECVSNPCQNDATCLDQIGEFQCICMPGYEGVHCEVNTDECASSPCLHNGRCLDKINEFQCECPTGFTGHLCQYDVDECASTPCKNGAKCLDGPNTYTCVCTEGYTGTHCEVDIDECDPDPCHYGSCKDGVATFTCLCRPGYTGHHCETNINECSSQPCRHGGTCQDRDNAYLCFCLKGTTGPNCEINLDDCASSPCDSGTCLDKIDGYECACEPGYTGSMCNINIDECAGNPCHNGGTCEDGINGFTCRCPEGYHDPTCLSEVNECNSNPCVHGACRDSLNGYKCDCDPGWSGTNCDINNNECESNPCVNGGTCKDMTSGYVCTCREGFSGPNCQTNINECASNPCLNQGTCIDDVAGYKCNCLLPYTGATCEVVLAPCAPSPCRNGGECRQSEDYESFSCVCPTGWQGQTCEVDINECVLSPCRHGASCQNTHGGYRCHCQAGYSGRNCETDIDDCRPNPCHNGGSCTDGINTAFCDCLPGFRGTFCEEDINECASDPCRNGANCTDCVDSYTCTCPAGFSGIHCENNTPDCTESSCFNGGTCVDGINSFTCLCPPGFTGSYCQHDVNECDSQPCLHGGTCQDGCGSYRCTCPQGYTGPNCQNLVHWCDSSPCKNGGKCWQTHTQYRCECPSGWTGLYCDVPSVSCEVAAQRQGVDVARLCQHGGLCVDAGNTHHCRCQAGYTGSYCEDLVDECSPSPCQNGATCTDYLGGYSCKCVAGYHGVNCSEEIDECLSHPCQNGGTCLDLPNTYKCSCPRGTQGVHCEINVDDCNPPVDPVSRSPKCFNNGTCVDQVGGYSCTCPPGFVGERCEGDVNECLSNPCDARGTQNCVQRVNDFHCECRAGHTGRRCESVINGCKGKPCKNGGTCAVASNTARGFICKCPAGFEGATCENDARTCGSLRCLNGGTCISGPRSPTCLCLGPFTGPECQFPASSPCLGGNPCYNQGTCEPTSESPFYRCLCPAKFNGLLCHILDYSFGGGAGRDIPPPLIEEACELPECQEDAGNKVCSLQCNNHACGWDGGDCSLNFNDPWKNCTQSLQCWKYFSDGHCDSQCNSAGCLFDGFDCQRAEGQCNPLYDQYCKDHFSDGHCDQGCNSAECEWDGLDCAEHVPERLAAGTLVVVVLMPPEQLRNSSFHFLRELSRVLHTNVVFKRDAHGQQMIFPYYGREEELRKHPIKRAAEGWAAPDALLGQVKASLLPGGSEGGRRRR
# full-length, cell surface-expressed Notch1, sequence (P46531 1665-1756 limits assumed): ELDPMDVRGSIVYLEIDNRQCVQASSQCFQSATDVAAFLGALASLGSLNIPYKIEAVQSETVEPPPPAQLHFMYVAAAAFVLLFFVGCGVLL
# Source text: Extended Data FIG. 5. Quantitation of mNotch1 binding to DLL4 variants, ligand adsorption, and Notch surface expression. a, SPR binding isotherms were fitted to a 1:1 binding model to determine the binding affinity between mNotch1 (6-13) and each DLL4 variant. b, Determination of plate adsorption for WT DLL4 and Delta^MAX by ELISA. Data represent mean values±s.d. of three biological replicates. c, Binding assay of WT DLL4 and Delta^MAX tetramers to Notch1 overexpressing CHO-K1 N1-Gal4 cells was measured by flow cytometry. Data represent mean values±s.d. of three biological replicates. d, The level of Notch1 expression on the surface of cell lines used in this study was determined by flow cytometry. Data represent mean values±s.d. of three biological replicates. e, Percentage of CD8^+ T cells expressing Notch1 (upper graph) and Notch2 (bottom graph) on cell surface determined by flow cytometry after stimulation with K32-WT DLL4, K32-Delta^MAX, or K32 for 96 hours. Data represent mean values±s.e.m. of three biological replicates. Delta^MAX statistics are referred to WT DLL4. *P<0.05, ****P<0.0001 (Two-way ANOVA).
# [2] = test system: Notch1; experiment: Notch inhibition assay in co-culture format (CHO-K1 N1-Gal4 with HEK293T expressing WT DLL4); assay type: cell-based; details: co-culture 1:1 with HEK293T expressing WT DLL4; read-out: IC50 for inhibition of Notch1 activation by cellular DLL4
# Experimental: For inhibition of CHO-K1 N1-Gal4 cells with DAPT and Delta^MAX, the experiment was set-up following the protocol described above with the exception that CHO-K1 N1-Gal4 reporters were incubated with HEK293T-expressing WT DLL4 for Notch activation. Three-fold serial dilutions of soluble Delta^MAX and DAPT were prepared in DPBS starting at 6,000 nM. For DAPT, a stock solution of 100 μM in 8% DMSO was prepared before serial dilutions in DPBS. Appropriate DMSO controls were also assayed for cytotoxicity. Final DMSO concentration in the wells was maintained below 1%. Thirty thousand signal senders and pre-blocked signal receivers (100 μL each) were incubated for 24 hours at 37° C. and 5% CO2 before analysis by flow cytometry. Maximum Notch activation (100%) was set in the absence of soluble inhibitors and normalized to wells containing CHO-K1 N1-Gal4 cells and HEK293T lacking expression of WT DLL4. Mean fluorescence intensity is represented as percentage relative to Notch activation in the absence of inhibitors±s.d. of three independent biological replicates.
# [3] = test system: Notch1; experiment: Notch inhibition, U2OS luciferase reporter on WT DLL4 coated plates; assay type: cell-based, human; details: plates coated with 50 nM WT DLL4, 10-fold dilutions from 3,000 nM
# Experimental: (§1) For U2OS cells, on day one, 5×10^5 cells were plated in 6-well tissue culture plates. On day two, U2OS cells were transfected as described above. On day three, 96-well plates (Coastar) were coated with streptavidin and biotinylated WT DLL4 at 50 nM as described above. Next, U2OS reporter cells were detached with trypsin-EDTA and diluted at 200,000 cells/mL in DMEM media. Ten-fold serial dilutions of soluble DLL4 variants starting at 6,000 nM were prepared in DPBS and used to pre-block reports cells following the same protocol described above. Two-hundred microliters of inhibition reactions were added to 96-well plates pre-coated with biotinylated WT DLL4 ligand at 50 nM, and assay plates incubated for 24 hours at 37° C. and 5% CO2. On day fourth, luciferase signals were measured with Dual-Glo luciferase assay system (Promega) using a GloMax luminometer (Promega). Doxycycline at 2 μg/mL was maintained to […]. A ratio between firefly and Renilla luciferase was calculated, and Notch activation normalized to wells where inhibitors were non-added. The data represent fold-change of Notch activation as percentage, relative to Notch activation in the absence of inhibitors±s.d. of three independent biological replicates.
# Target sequence in this assay (P46531 19-1664 limits assumed): as the sequence (P46531 19-1664 limits assumed) above
# Target sequence in this assay (P46531 1665-1756 limits assumed): as the sequence (P46531 1665-1756 limits assumed) above
# [4] = test system: Notch2; experiment: as above; assay type: cell-based, human; details: plates coated with 50 nM WT DLL4, 10-fold dilutions from 3,000 nM
# Notch2, sequence (Q04721 26-1677 limits assumed): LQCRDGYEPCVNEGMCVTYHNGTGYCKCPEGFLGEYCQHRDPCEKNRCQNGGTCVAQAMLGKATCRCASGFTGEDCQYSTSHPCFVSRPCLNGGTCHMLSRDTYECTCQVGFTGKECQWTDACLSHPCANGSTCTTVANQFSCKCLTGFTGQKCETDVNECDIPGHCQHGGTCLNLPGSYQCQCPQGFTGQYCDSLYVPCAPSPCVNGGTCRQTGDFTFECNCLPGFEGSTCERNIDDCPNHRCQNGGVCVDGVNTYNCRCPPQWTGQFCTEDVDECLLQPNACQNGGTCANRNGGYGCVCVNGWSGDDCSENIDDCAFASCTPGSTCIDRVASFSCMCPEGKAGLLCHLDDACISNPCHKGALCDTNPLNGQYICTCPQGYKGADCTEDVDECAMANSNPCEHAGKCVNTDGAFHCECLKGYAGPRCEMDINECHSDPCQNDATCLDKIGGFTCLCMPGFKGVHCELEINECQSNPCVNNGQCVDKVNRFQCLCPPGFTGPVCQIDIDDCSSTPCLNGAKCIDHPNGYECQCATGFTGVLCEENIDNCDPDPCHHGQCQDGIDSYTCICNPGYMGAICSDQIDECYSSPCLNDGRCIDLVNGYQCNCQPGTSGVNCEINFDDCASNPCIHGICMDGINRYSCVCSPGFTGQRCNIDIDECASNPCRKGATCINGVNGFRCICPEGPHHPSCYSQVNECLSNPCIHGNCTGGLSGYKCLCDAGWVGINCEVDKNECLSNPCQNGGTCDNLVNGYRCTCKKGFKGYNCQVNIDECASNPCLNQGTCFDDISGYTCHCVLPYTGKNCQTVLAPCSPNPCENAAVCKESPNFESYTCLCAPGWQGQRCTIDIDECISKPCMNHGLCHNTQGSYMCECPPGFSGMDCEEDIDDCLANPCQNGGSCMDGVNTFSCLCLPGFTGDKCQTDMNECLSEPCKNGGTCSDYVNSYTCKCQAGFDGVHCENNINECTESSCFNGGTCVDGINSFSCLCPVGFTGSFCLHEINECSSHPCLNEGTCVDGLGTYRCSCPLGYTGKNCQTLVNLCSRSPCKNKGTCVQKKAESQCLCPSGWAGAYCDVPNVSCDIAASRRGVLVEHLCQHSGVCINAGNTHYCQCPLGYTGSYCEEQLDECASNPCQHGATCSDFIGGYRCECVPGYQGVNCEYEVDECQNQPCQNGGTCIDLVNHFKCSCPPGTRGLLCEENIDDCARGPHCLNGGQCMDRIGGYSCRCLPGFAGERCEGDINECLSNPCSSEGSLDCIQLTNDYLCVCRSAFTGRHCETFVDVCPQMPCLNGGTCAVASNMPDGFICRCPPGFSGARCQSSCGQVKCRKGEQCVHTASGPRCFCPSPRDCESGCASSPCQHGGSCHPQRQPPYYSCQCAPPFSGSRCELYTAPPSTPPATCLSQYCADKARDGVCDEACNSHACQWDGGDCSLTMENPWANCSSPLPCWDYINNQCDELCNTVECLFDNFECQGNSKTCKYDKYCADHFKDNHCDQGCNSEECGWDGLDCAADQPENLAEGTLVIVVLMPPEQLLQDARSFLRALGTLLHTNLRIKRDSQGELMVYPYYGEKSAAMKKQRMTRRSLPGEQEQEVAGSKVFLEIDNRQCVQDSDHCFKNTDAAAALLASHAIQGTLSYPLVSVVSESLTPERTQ
# Experimental: as §1
# [5] = test system: Notch3; experiment: as above; assay type: cell-based, human; details: plates coated with 50 nM WT DLL4, 10-fold dilutions from 3,000 nM
# Notch3, sequence (Q9UM47 197-505 limits assumed): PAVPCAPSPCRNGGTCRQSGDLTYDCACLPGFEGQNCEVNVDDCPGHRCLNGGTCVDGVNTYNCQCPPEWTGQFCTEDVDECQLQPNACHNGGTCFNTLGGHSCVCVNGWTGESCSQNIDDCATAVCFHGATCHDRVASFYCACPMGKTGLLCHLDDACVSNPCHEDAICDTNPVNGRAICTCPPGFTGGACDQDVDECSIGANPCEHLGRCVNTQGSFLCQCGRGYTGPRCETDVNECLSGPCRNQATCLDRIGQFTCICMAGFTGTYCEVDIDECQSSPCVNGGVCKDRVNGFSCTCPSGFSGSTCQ
# Experimental: as §1
# [6] = test system: CD8+ T cells; experiment: Co-culture assay for IFNγ in T cells (K32 aAPCs expressing ligand); assay type: cell-based, human; details: 96 h, P=0.047
# Experimental: Functional assays for human CD8^+ T cells were performed in co-culture with K562 cells expressing human CD32 (K32 cells) generated as described before7. Briefly, cells were γ-irradiated (100Gy) and washed twice with PBS before being loaded with OKT3 (0.0125-0.5 μg/mL, BioXcell) antibody at RT for 10 min. Human CD8^+ T cells were negatively isolated from PBMC and labeled with 5 μM of Cell Trace Violet (Invitrogen) according to manufacturer's specifications. Next, CD8^+ T cells were co-cultured with K32 cells at ratio 1:10 (T cell:K32). The frequency of proliferating T cells was determined after 96 hours by flow cytometry using a CytoFLEX II (Beckman Coulter). Zombie Green (Biolegend) was used for life/dead cell staining to discard dead cells from the analysis. A set of samples were additionally incubated with Golgi stop (BD) at 0.5 μL/well for 5 hours and washed with PBS for detection of intracellular IFNγ using anti-hIFNγ APC antibody (Biolegend). The frequency of IFNγ positive cells was analyzed by flow cytometry (CytoFLEX II, Beckman Coulter). Dead cells were excluded from the analysis by staining with Zombie green (Biolegend). The data represent the mean percentage of proliferating T cells or IFNγ^+ T cells±s.e.m. of four independent biological replicates.
molecule,measurement,setting,value
B1,increase of mean fluorescence intensity (MFI) of binding compared to WT DLL4,[1],4.7 fold
same,IC50,[2],400 nM
same,effect of soluble competitor on Notch1 signaling,[3],dose-dependent decreases
same,effect of soluble competitor on Notch2 signaling,[4],dose-dependent decreases
same,effect of soluble competitor on Notch3 signaling,[5],dose-dependent decreases
same,increase of IFNγ secretion from CD8+ T cells compared with WT DLL4,[6],10-15%
